Results published in US20230227584A1 (published 2023).
Numbering of substitutions follows the chain as printed.

T1: human OX40 on the cell surface (activated human T cells; HeLa_hOx40_NFkB_Luc1 reporter cells) (human, UniProt P43489 29-277)
T1 sequence: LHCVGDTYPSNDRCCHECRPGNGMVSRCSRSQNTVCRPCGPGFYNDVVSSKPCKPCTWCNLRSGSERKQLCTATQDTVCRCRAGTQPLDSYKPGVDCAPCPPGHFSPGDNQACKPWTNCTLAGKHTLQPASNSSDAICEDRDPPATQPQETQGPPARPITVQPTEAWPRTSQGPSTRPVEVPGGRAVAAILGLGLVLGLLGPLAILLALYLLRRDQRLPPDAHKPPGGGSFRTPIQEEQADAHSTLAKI

B1: P1AD3690 untargeted tetravalent OX40 (49B4) antigen binding molecule (4+0) (antibody, V domains shown)
VH: QVQLVQSGAEVKKPGSSVKVSCKASGGTFSSYAISWVRQAPGQGLEWMGGIIPIFGTANYAQKFQGRVTITADKSTSTAYMELSSLRSEDTAVYYCAREYYRGPYDYWGQGTTVTVSS
VL: DIQMTQSPSTLSASVGDRVTITCRASQSISSWLAWYQQKPGKAPKLLIYDASSLESGVPSRFSGSGSGTEFTLTISSLQPDDFATYYCQQYSSQPYTFGQGTKVEIK
B2: P1AE8875 OX40(MOXR0916) x FAP(1G1a) 3+1 (bispecific antibody, human IgG1, kappa, L234A L235A)
heavy 1: not shown
heavy 2: EVQLVQSGAEVKKPGASVKVSCKASGYTFTDSYMSWVRQAPGQGLEWIGDMYPDNGDSSYNQKFRERVTITRDTSTSTAYLELSSLRSEDTAVYYCVLAPRWYFSVWGQGTLVTVSSASTKGPSVFPLAPSSKSTSGGTAALGCLVEDYFPEPVTVSWNSGALTSGVHTFPAVLQSSGLYSLSSVVTVPSSSLGTQTYICNVNHKPSNTKVDEKVEPKSCGGGGSGGSGGEVQLVQSGAEVKKPGASVKVSCKASGYTFTDSYMSWVRQAPGQGLEWIGDMYPDNGDSSYNQKFRERVTITRDTSTSTAYLELSSLRSEDTAVYYCVLAPRWYFSVWGQGTLVTVSSASTKGPSVFPLAPSSKSTSGGTAALGCLVEDYFPEPVTVSWNSGALTSGVHTFPAVLQSSGLYSLSSVVTVPSSSLGTQTYICNVNHKPSNTKVDEKVEPKSCDKTHTCPPCPAPEAAGGPSVFLFPPKPKDTLMISRTPEVTCVVVDVSHEDPEVKFNWYVDGVEVHNAKTKPREEQYNSTYRVVSVLTVLHQDWLNGKEYKCKVSNKALGAPIEKTISKAKGQPREPQVCTLPPSRDELTKNQVSLSCAVKGFYPSDIAVEWESNGQPENNYKTTPPVLDSDGSFFLVSKLTVDKSRWQQGNVFSCSVMHEALHNHYTQKSLSLSP
light 1: not shown
light 2: EIVLTQSPATLSLSPGERATLSCRASESVDNYGLSFINWFQQKPGQAPRLLIYGTSNRGSGIPARFSGSGSGTDFTLTISSLEPEDFAVYFCQQSNEVPYTFGGGTKVEIKSSASTKGPSVFPLAPSSKSTSGGTAALGCLVKDYFPEPVTVSWNSGALTSGVHTFPAVLQSSGLYSLSSVVTVPSSSLGTQTYICNVNHKPSNTKVDKKVEPKSC
notes: (2+1)', but its chains are those of a MOXR0916 3+1 molecule ending in EPKSC; Human IgG1 Fc, knob-into-hole, PGLALA; also called MOX0916 3+1; MOXR0916 3+1
B3: P1AE8872 OX40 (MOXR0916) x FAP (1G1a) (2+1) C-terminal crossfab fusion (bispecific antibody, human IgG1, kappa, L234A L235A)
heavy 1: not shown
heavy 2: EVQLVQSGAEVKKPGASVKVSCKASGYTFTDSYMSWVRQAPGQGLEWIGDMYPDNGDSSYNQKFRERVTITRDTSTSTAYLELSSLRSEDTAVYYCVLAPRWYFSVWGQGTLVTVSSASTKGPSVFPLAPSSKSTSGGTAALGCLVEDYFPEPVTVSWNSGALTSGVHTFPAVLQSSGLYSLSSVVTVPSSSLGTQTYICNVNHKPSNTKVDEKVEPKSCDKTHTCPPCPAPEAAGGPSVFLFPPKPKDTLMISRTPEVTCVVVDVSHEDPEVKFNWYVDGVEVHNAKTKPREEQYNSTYRVVSVLTVLHQDWLNGKEYKCKVSNKALGAPIEKTISKAKGQPREPQVCTLPPSRDELTKNQVSLSCAVKGFYPSDIAVEWESNGQPENNYKTTPPVLDSDGSFFLVSKLTVDKSRWQQGNVFSCSVMHEALHNHYTQKSLSLSP
light 1: not shown
light 2: B2 light 2
notes: 2+1 format; Human IgG1 Fc, knob-into-hole, PGLALA; VL-CH1 chain ends in EPKSC; also called MOX0916 2+1; MOXR0916 2+1
B4: P1AE8874 OX40 (CLC563) x FAP (1G1a) (3+1) C-terminal crossfab fusion (bispecific antibody, human IgG1, kappa, L234A L235A)
heavy 1: not shown
heavy 2: not shown
light 1: not shown
light 2: B2 light 2
notes: 3+1 format; Human IgG1 Fc, knob-into-hole, PGLALA; VL-CH1 chain ends in EPKSC; also called CLC-563 3+1
B5: P1AE8871 OX40 (CLC563) x FAP (1G1a) (2+1) C-terminal crossfab fusion (bispecific antibody, human IgG1, kappa, L234A L235A)
heavy 1: not shown
heavy 2: not shown
light 1: not shown
light 2: B2 light 2
notes: 2+1 format; Human IgG1 Fc, knob-into-hole, PGLALA; VL-CH1 chain ends in EPKSC; also called CLC-563 2+1
B6: P1AE1116 GITR(852.2) x FAP (4B9) (2+1) C-terminal crossfab fusion (bispecific antibody, human IgG1, kappa, L234A L235A)
heavy 1: not shown
heavy 2: EVQLVESGGGLVQPGGSLRLSCAASGFTFSSYTMKWVRQTPGKGLEWVSVISADGGTTDHAASVKGRFTVSRDNSKNMLYLQMNSLRAEDTAIYYCAKDRANDWITGASFDYWGQGALVTVSSASTKGPSVFPLAPSSKSTSGGTAALGCLVEDYFPEPVTVSWNSGALTSGVHTFPAVLQSSGLYSLSSVVTVPSSSLGTQTYICNVNHKPSNTKVDEKVEPKSCDKTHTCPPCPAPEAAGGPSVFLFPPKPKDTLMISRTPEVTCVVVDVSHEDPEVKFNWYVDGVEVHNAKTKPREEQYNSTYRVVSVLTVLHQDWLNGKEYKCKVSNKALGAPIEKTISKAKGQPREPQVCTLPPSRDELTKNQVSLSCAVKGFYPSDIAVEWESNGQPENNYKTTPPVLDSDGSFFLVSKLTVDKSRWQQGNVFSCSVMHEALHNHYTQKSLSLSP
light 1: DIQMTQSPSSLSASVGDRVTITCRASQSINSYLNWYQQKPGNAPKLLIYAASSLQSGVPSRFSGSGSGTEFTLTISSLQPEDLATYYCQQARSFPLTFGGGTKVEIKRTVAAPSVFIFPPSDRKLKSGTASVVCLLNNFYPREAKVQWKVDNALQSGNSQESVTEQDSKDSTYSLSSTLTLSKADYEKHKVYACEVTHQGLSSPVTKSFNRGEC
light 2: EIVLTQSPGTLSLSPGERATLSCRASQSVTSSYLAWYQQKPGQAPRLLINVGSRRATGIPDRFSGSGSGTDFTLTISRLEPEDFAVYYCQQGIMLPPTFGQGTKVEIKSSASTKGPSVFPLAPSSKSTSGGTAALGCLVKDYFPEPVTVSWNSGALTSGVHTFPAVLQSSGLYSLSSVVTVPSSSLGTQTYICNVNHKPSNTKVDKKVEPKSC
notes: 2+1 format; Human IgG1 Fc, knob-into-hole, PGLALA; VL-CH1 chain ends in EPKSC
B7: P1AG1036 GITR(852.2) x FAP (4B9_EPKSCS) (2+1) C-terminal crossfab fusion (bispecific antibody, human IgG1, kappa, L234A L235A)
heavy 1: not shown
heavy 2: B6 heavy 2
light 1: B6 light 1
light 2: EIVLTQSPGTLSLSPGERATLSCRASQSVTSSYLAWYQQKPGQAPRLLINVGSRRATGIPDRFSGSGSGTDFTLTISRLEPEDFAVYYCQQGIMLPPTFGQGTKVEIKSSASTKGPSVFPLAPSSKSTSGGTAALGCLVKDYFPEPVTVSWNSGALTSGVHTFPAVLQSSGLYSLSSVVTVPSSSLGTQTYICNVNHKPSNTKVDKKVEPKSCS
notes: 2+1 format; Human IgG1 Fc, knob-into-hole, PGLALA; VL-CH1 chain ends in EPKSCS
B8: P1AG1039 GITR(852.2) x FAP (4B9_EPKSCG) (2+1) C-terminal crossfab fusion (bispecific antibody, human IgG1, kappa, L234A L235A)
heavy 1: not shown
heavy 2: B6 heavy 2
light 1: B6 light 1
light 2: B7 light 2 with S214G
notes: 2+1 format; Human IgG1 Fc, knob-into-hole, PGLALA; VL-CH1 chain ends in EPKSCG

Target: T1, human OX40 on the cell surface …
Assay: cell-based or functional assay

First: B1
Second: B2
The “EC50 of NFκB activation (luciferase), HeLa_hOx40_NFkB_Luc1, w/ hu FAP” value (shortened to “EC50 of NFκB activation (luciferase) … w/ hu FAP”) of the first is 1.7-fold lower: 0.18 nM for the first, 0.31 nM for the second.

B3 and B4 are within 1.5-fold of each other in “EC50 of NFκB activation (luciferase) … w/ hu FAP” value: 0.19 nM for the first, 0.24 nM for the second.

For B5, the “EC50 of NFκB activation (luciferase) … w/ hu FAP” value was 0.21 nM.

First: B1
Second: B2
The “EC50 of NFκB activation (luciferase), HeLa_hOx40_NFkB_Luc1, w/o” value of the first is 17-fold lower: 0.23 nM for the first, 3.94 nM for the second.

B4 was tested, and the “EC50 of NFκB activation (luciferase), HeLa_hOx40_NFkB_Luc1, w/o” value was 0.79 nM.

Target: T1, human OX40 on the cell surface …
Assay: cell-based or functional assay
Remark: another data set of the same source

First: B1
Second: B2
The “CD25 upregulation on CD4+ T cells, AUC compared to reference compound [%]” value (“CD25 upregulation on CD4+ T cells, AUC … [%]” below) of the first is lower: 13% for the first, 100% for the second.

Going from B3 to B4, the “CD25 upregulation on CD4+ T cells, AUC … [%]” value falls from 106% to 100%.

With B5 the “CD25 upregulation on CD4+ T cells, AUC … [%]” value was 99%.

First: B2
Second: B3
The “EC50 of CD25 upregulation on CD4+ T cells, suboptimal TCR stimulation of human PBMC with NIH/3T3-huFAP cells” value of the first is 2-fold higher: 0.02 nM for the first, 0.01 nM for the second.

First: B4
Second: B5
The “EC50 of CD25 upregulation on CD4+ T cells, suboptimal TCR stimulation of human PBMC with NIH/3T3-huFAP cells” value of the first is 1.5-fold lower: 0.04 nM for the first, 0.06 nM for the second.

Target: T2, FcRn (biotinylated, coupled to streptavidin-sepharose)
T2 construct: also called neonatal Fc receptor
T2 sequence (P55899 24-297, chain 1 of 2): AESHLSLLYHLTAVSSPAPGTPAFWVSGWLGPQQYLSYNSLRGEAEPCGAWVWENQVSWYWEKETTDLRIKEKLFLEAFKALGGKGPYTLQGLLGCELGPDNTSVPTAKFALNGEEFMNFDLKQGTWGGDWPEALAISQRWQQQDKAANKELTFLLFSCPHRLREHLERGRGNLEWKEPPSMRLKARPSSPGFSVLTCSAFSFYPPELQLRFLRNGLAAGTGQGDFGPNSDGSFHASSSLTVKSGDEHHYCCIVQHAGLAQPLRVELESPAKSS
T2 sequence (P61769 21-119, chain 2 of 2, further chain): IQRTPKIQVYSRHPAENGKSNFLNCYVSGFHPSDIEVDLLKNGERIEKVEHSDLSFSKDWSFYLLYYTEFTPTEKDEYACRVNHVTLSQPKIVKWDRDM
Assay: FcRn affinity chromatography; retention compared to protein standards with known affinities
Procedure: For coupling, the prepared receptor was added to streptavidin-sepharose (GE Healthcare). The resulting FcRn-sepharose matrix was packed in a column housing. The column was equilibrated with 20 mM 2-(N-morpholine)-ethanesulfonic acid (MES) and 140 mM NaCl, pH 5.5 (eluent A) at a 0.5 ml/min flow rate. 30 µg of antibody samples were diluted at a volume ratio of 1: 1 with eluent A and applied to the FcRn column. The column was washed with 5 column volumes of eluent A followed by elution with a linear gradient from 20 to 100% 20 mM Tris/HCl and 140 mM NaCl, pH 8.8 (eluent B) in 35 column volumes. The analysis was performed with a column oven at 25° C. The elution profile was monitored by continuous measurement of the absorbance at 280 nm. Retention times were compared to protein standards with known affinities.

Going from B2 to B3, the FcRn affinity rises from -0.22 to 0.15.

B4 showed a FcRn affinity of -0.14.

Target: human FAP (soluble second analyte, SPR) (human, UniProt Q12884 26-760)
Assay: SPR (Biacore T200), biotinylated human GITR Fc(kih) on SA chip, bispecific at 200 nM, then human FAP at 500 nM
Procedure: The capacity of binding simultaneously human GITR Fc(kih) and human FAP can be assessed by surface plasmon resonance (SPR). All SPR experiments are performed on a Biacore T200 at 25° C. with HBS-EP as running buffer (0.01 M HEPES pH 7.4, 0.15 M NaCl, 3 mM EDTA, 0.005% Surfactant P20, Biacore, Freiburg/Germany). […] Immobilization levels up to 1000 resonance units (RU) are used. The bispecific antibodies targeting GITR and FAP are passed at a concentration range of 200 nM with a flow of 30 µL/minute through the flow cells over 90 seconds and dissociation was set to zero sec. Human FAP is injected as second analyte with a flow of 30 µL/minute through the flow cells over 90 seconds at a concentration of 500 nM. The dissociation is monitored for 120 sec. Bulk refractive index differences are corrected for by subtracting the response obtained in a reference flow cell, where no protein is immobilized.

B6: binds.
B7: binds.
B8: binds.

Target: T3, human fibroblast activation protein (huFAP) on NIH/3T3-huFAP clone 19 cells (human, UniProt Q12884 1-760)
T3 construct: Mouse NIH/3T3 fibroblasts transfected with vector pETR4921 to express huFAP; also called cell surface FAP
Assay: flow cytometry, NIH/3T3-huFAP clone 19 cells
Procedure: In another experiment, a mixture of 2 × 10⁵ NIH/3T3-huFAP clone 19 cells and HeLa cells in FACS buffer were added to each well of a round-bottom 96-well plates (TPP, Cat. No. 92097) and the binding assay was performed. Cells were first stained 20 min with LIVE/DEAD™ Fixable Aqua Dead Cell Stain (Molecular probes, Cat.No. L34957) in DPBS, followed after one washing step with 200 µL 4° C. […] Afterwards the cells were washed once with 200 µL FACS buffer at 4° C. and resuspended by a short vortex. Cells were further stained with 50 µL/well of 4° C. cold secondary antibody solution containing Phycoerythrin (PE)-conjugated AffiniPure anti-human IgG Fcy-fragment-specific goat IgG F(ab′)2 fragment (Jackson ImmunoResearch, Cat. No. 109-116-098) and incubated for 30 minutes at 4° C. in the dark. Samples were finally resuspended in 100 µL/well FACS-buffer and acquired the same day using with BD Fortessa running FACS Diva software.

Compared with B2, B3 is 1.5-fold lower in EC50: 2.7 nM for the first, 1.78 nM for the second.

B4 and B5 are within 1.5-fold of each other in EC50: 2.52 nM for the first, 2.51 nM for the second.

Target: T1, human OX40 on the cell surface …
Assay: flow cytometry, activated human PBMC gated on CD4+ T cells

B2 and B3 are within 1.5-fold of each other in EC50: 0.69 nM for the first, 0.9 nM for the second.

B4 and B5 are within 1.5-fold of each other in EC50: 3.62 nM for the first, 3.19 nM for the second.
